PMC7503452

Columns and labels:
Assay in all cases: fluorescence anisotropy
[1] = biological target: A3H Hap I K117E/K121E (human, UniProt Q6NTF7 1-200, K117E;K121E)
[2] = biological target: A3H Hap I K117E (human, UniProt Q6NTF7 1-200, K117E)
[3] = biological target: A3H Hap II (human, UniProt Q6NTF7 1-181, G105R;K121D;E178D)
[4] = biological target: A3H Hap VII (human, UniProt Q6NTF7 1-200, G105R)
Chain of A3H Hap VII (Q6NTF7 whole entry G105R): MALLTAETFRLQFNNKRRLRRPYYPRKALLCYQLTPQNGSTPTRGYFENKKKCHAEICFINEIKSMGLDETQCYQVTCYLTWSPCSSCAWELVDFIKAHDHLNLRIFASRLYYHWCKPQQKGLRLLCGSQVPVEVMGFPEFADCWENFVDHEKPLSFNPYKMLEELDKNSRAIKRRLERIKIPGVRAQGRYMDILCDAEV

Chain of A3H Hap I K117E/K121E (Q6NTF7 whole entry K117E/K121E): as the sequence (Q6NTF7 whole entry G105R) above, with R105G, K117E, K121E counted along it
Chain of A3H Hap I K117E (Q6NTF7 whole entry K117E): as the sequence (Q6NTF7 whole entry G105R) above, with R105G, K117E counted along it
Chain of A3H Hap II (Q6NTF7 1-181 G105R/K121D/E178D): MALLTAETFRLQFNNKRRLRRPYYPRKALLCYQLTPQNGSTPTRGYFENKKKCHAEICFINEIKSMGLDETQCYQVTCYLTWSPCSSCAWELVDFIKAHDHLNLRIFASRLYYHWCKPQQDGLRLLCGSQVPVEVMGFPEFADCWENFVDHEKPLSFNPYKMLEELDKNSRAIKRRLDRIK

B1: 118-nt ssDNA (ssDNA)
DNA: GAATATAGTTTTTAGCTCAAAGTAAGTGAAGATAATTTAGAGAGTTGTAATGTGATATATGTGTATGAAAGATATAAGACTCAAAGTGAAAAGTTGTTAATGTGTGTAGATATGTTAA
modifications: internal fluorescein-dT at position 37
Q: Which Kd [1] does the source give for B1 here?
A: The Kd was 1240 ± 88 nM.

Q: What about the Kd [2] of the same binder?
A: The Kd was 3000 ± 1770 nM.

Q: What about the Kd [3] of the same binder?
A: The Kd was 492 ± 28 nM.

Q: And the Kd [4]?
A: Its Kd is 522 ± 4 nM.
